Reference: US9926369B2, “Methods for treating hepatocellular cancer by administering an anti-Ang-2 antibody” (Regeneron Pharmaceuticals, Inc., priority 2009, dated 2018)

Key:
[1] = target: Dimeric Monkey Ang-2FD-hFc; experiment: Cross-species SPR binding at 25° C. or 37° C., monkey Ang-2FD-hFc
Experimental: Additional binding experiments were conducted using selected anti-Ang-2 antibodies at two different temperatures to further assess cross-species affinity. Each selected antibody or control construct was captured at a flow rate of 40 μL/min for 1 minute on a goat anti-human kappa polyclonal antibody surface created through direct chemical coupling to a BIACORE™ chip to form a captured antibody surface. Human, monkey and mouse Ang-2FD-Fc at a concentration of 25 nM or 0.78 nM was injected over the captured antibody surface at a flowrate of 60 μL/min for 3 minutes, and antigen-antibody dissociation was monitored in real time for 20 minutes at either 25° C. or 37° C.

[2] = target: T1, hAng-2-WT binding to hTie-2-mFc (Homo sapiens, UniProt O15123); experiment: Biosensor SPR blocking of hAng-2-WT binding to hTie-2-mFc-ecto surface; format: biochemical; details: 25 nM hAng-2-WT
T1 sequence (O15123 19-496): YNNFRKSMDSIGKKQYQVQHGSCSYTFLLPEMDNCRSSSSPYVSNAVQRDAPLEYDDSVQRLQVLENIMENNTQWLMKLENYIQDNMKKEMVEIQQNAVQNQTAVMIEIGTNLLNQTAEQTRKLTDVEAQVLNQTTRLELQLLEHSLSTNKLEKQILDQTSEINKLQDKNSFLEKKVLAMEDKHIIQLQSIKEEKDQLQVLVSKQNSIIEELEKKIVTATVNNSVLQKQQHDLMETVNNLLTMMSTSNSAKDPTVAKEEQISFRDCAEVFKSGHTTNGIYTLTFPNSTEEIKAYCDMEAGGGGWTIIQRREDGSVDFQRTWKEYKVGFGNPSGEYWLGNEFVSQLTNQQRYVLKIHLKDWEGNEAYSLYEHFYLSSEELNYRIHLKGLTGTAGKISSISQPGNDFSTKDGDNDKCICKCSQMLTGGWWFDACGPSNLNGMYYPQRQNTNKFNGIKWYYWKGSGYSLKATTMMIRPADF
Experimental: The foregoing experiment was repeated using different amounts of Ang-2 blockers and controls. In particular, a human Tie-2 full-length extracellular domain construct (hTie-2-mFc-ecto) was amine-coupled on a BIACORE™ chip to create a receptor-coated surface. Selected anti-hAng-2 antibodies and control constructs (50 or 150 nM) were mixed with hAng-2-WT (25 nM) followed by 60 minutes incubation at 25° C. to allow antibody-antigen binding to reach equilibrium. The equilibrated solutions were injected over the receptor surfaces at 10 μL/min for 5 minutes at 25° C. To evaluate the ability of the selected anti-hAng-2 antibodies to block Ang-1-WT binding to hTie-2, a similar procedure was followed except the antibodies were tested at three concentrations (50, 100 or 1000 nM) and incubated with 10 nM of hAng-1-WT. Changes in resonance units (RU) due to the binding of the Ang-2-WT or hAng-1-WT to hTie-2-mFc were determined. An irrelevant antibody with no binding to either angiopoietin was included in these experiments to establish the 0% blocking baseline, and a human Tie-2-mFc construct was used as a positive control for blocking. Results are summarized in Tables 21 (hAng-1 applied to a hTie-2 surface) and 22 (hAng-2 applied to a hTie-2 surface).

[3] = tested on: Monkey Ang-2FD-hFc binding to hTie-2-mFc; experiment: ELISA blocking of monkey Ang-2FD-hFc binding to hTie-2-mFc; format: biochemical; details: 16.67 nM antibody; 2 nM Ang-2FD-hFc
Sequence of Monkey Ang-2FD-hFc binding to hTie-2-mFc (as listed by the source): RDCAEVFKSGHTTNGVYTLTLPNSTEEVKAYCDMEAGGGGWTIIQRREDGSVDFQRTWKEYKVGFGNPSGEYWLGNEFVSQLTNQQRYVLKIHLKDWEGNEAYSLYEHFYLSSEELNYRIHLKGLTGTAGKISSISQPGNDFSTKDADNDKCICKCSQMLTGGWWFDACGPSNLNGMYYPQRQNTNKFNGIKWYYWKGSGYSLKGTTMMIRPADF
Sequence of Monkey Ang-2FD-hFc binding to hTie-2-mFc (Q02763 with tags, fused parts or gaps Q346P/T695I partner limits assumed): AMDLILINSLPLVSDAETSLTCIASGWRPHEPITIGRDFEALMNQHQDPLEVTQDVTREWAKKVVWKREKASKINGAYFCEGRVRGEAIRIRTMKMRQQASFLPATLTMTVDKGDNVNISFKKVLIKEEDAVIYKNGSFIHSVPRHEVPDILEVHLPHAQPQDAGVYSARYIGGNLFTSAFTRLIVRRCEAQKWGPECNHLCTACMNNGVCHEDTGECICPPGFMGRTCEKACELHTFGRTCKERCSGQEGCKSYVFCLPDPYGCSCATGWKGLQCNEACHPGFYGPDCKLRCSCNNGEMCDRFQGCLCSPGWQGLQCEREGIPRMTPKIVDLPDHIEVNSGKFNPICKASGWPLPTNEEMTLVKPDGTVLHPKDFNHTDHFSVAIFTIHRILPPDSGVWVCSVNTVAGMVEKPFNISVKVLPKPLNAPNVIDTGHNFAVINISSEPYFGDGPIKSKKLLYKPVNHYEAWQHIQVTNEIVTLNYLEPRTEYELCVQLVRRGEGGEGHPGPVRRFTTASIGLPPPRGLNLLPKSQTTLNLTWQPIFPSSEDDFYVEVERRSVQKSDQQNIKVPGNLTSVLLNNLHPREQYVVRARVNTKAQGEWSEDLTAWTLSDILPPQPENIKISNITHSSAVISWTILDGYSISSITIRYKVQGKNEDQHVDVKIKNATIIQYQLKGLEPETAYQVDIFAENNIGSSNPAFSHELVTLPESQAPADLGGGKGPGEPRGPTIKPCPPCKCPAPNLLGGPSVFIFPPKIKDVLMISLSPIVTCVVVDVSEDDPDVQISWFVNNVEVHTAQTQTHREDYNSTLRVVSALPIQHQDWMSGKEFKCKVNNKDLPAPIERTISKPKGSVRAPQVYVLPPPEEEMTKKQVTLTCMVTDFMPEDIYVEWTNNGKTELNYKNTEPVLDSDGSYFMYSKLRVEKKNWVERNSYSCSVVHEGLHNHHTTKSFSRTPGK
Experimental: Tie-2 is a natural receptor for Ang-2. Anti-Ang-2 antibodies were tested for their ability to block Ang-2 binding to human Tie-2 (hTie-2). hTie-2-mFc (a chimeric construct consisting of human Tie-2 conjugated to mouse IgG; SEQ ID NO:525) was coated onto 96-well plates at a concentration of 2 μg/ml and incubated overnight followed by washing four times in wash buffer (PBS with 0.05% Tween-20). The plate was then blocked with PBS (Irvine Scientific, Santa Ana, Calif.) containing 0.5% BSA (Sigma-Aldrich Corp., St. Louis, Mo.) for one hour at room temperature. In a separate plate, purified anti-Ang-2 antibodies, at a starting concentration of 50 nM, were serially diluted by a factor of three across the plate. Human, mouse or monkey Ang-2FD protein conjugated to human IgG (Ang-2FD-hFc) were added to final concentrations of 2 nM, 8 nM, or 2 nM respectively and incubated for one hour at room temperature. The antibody/Ang-2FD-Fc mixture was then added to the plate containing hTie-2-mFc and incubated for one hour at room temperature. Detection of Ang-2FD-hFc bound to hTie-2-mFc protein was determined with Horse-Radish Peroxidase (HRP) conjugated to a-human IgG antibody (Jackson Immuno Research Lab, West Grove, Pa.) and developed by standard colorimetric response using tetramethylbenzidine (TMB) substrate (BD Biosciences, San Jose, Calif.). Absorbance was read at OD450 for 0.1 sec.

Sequence of Dimeric Monkey Ang-2FD-hFc (as listed by the source): as the sequence (as listed by the source) above

H1H685P: human anti-Ang-2 antibody, HCVR/LCVR SEQ ID NOs 18/20; also referred to as mAb1 [Antibody H1H685P]
Kd ([1]; 25° C.): 0.022 nM | Kd ([1]; 37° C.): 0.0721 nM | Percent of Neg. Ctrl Binding (hAng-2 WT) ([2]; 50 nM antibody or control): 4.3% | Specific Bound RU (hAng-2 WT) ([2]; 50 nM antibody or control): 12 RU | Percent of Neg. Ctrl Binding (hAng-2 WT) ([2]; 150 nM antibody or control): 4.3% | Specific Bound RU (hAng-2 WT) ([2]; 150 nM antibody or control): 12 RU | Percent Blocking of Ang-2FD Binding to Tie-2, Monkey Ang-2FD-hFc [3]: 62.2%
